# Laboratory results published in patent publication US20200262877A1, “ION CHANNEL-BINDING PEPTIDES AND METHODS OF USE THEREOF” (priority 2017, published 2020).
# Tests used:
# α4β2 = target: T1, α4β2 (Homo sapiens, UniProt P17787+P43681); test: Ion channel panel (IonWorks Barracuda): α4β2; format: cell-based; settings: 100% = no change, <100% = inhibition
# T1 construct: host or cells: HEK293 or CHO
# How it was run: (§1)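 Peptides were tested in duplicate at final 20 μM and 200 nM, with concentration set by amino acid analysis, in HEPES-buffered saline. They were applied for at least 5 min to HEK293 or CHO cells transfected with each channel. Currents were expressed as % inhibition, 1-(Ipeptide/Icontrol)×100, or % activation, Ipeptide/Icontrol×100, against a channel-matched reference compound.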
# Kir2.1 = target: T2, Kir2.1 (Homo sapiens, UniProt P63252); test: Ion channel panel (IonWorks Barracuda): Kir2.1; format: cell-based; settings: 100% = no change, <100% = inhibition
# T2 construct: host or cells: HEK293 or CHO
# How it was run: as §1
# Cav2.1 = target: T3, Cav2.1 (Homo sapiens, UniProt O00555); test: cell-based; settings: 100% = no change, <100% = inhibition
# T3 construct: host or cells: HEK293 or CHO
# How it was run: as §1
# Kv2.1 = target: T4, Kv2.1 (Homo sapiens, UniProt Q14721); test: cell-based; settings: 100% = no change, <100% = inhibition
# T4 construct: host or cells: HEK293 or CHO
# How it was run: as §1
# Cav2.2 = target: T5, Cav2.2 (Homo sapiens, UniProt Q00975); test: cell-based; settings: 100% = no change, <100% = inhibition
# T5 construct: host or cells: HEK293 or CHO
# How it was run: as §1
# hERG = hERG (Homo sapiens, UniProt Q12809); test: in vitro; settings: 100% = no change, <100% = inhibition
# How it was run: as §1
# Nav1.5 = Nav1.5 (Homo sapiens, UniProt Q14524); test: in vitro; settings: 100% = no change; for Activity of Nav1.5 with peptide, expressed as a percentage of the reference compound: peptide at 0.2 μM; for Activity of Nav1.5 with peptide (percentage of the reference compound): peptide at 20 μM
# How it was run: as §1
# TRPV1 = target: T6, TRPV1 (Homo sapiens, UniProt Q8NER1); test: Ion channel panel (IonWorks Barracuda): TRPV1; format: cell-based; settings: 100% = no change, <100% = inhibition
# T6 construct: host or cells: HEK293 or CHO
# How it was run: as §1
# NR2B = target: T7, NR2B (Homo sapiens, UniProt Q13224); test: Ion channel panel (IonWorks Barracuda): NR2B; format: cell-based; settings: 100% = no change, <100% = inhibition
# T7 construct: host or cells: HEK293 or CHO
# How it was run: as §1
# Nav1.7 = target: T8, Nav1.7 (Homo sapiens, UniProt Q15858); test: cell-based; format: cell-based; settings: 100% = no change; for Activity of Nav1.7 with peptide, expressed as a percentage of the reference compound: peptide at 0.2 μM; for Activity of Nav1.7 with peptide (percentage of the reference compound): peptide at 20 μM
# T8 construct: host or cells: HEK293 or CHO
# α3β4 = target: T9, α3β4 (Homo sapiens, UniProt P30926+P32297); test: Ion channel panel (IonWorks Barracuda): α3β4; format: cell-based; settings: 100% = no change, <100% = inhibition
# T9 construct: host or cells: HEK293 or CHO
# How it was run: as §1
# Kv1.1 = target: T10, Kv1.1 (Homo sapiens, UniProt Q09470); test: cell-based; format: cell-based; settings: 100% = no change, <100% = inhibition
# T10 construct: host or cells: HEK293 or CHO
# How it was run: as §1
# Kv1.3 = target: T11, Kv1.3 (Homo sapiens, UniProt P22001); test: cell-based; format: cell-based; settings: 100% = no change, <100% = inhibition
# T11 construct: host or cells: HEK293 or CHO
# How it was run: as §1
# Kv1.2 = target: T12, Kv1.2 (Homo sapiens, UniProt P16389); test: cell-based; format: cell-based; settings: 100% = no change, <100% = inhibition
# T12 construct: host or cells: HEK293 or CHO
# How it was run: as §1
# TRPA1 = target: T13, TRPA1 (Homo sapiens, UniProt O75762); test: Ion channel panel (IonWorks Barracuda): TRPA1; format: cell-based; settings: 100% = no change, <100% = inhibition
# T13 construct: host or cells: HEK293 or CHO
# How it was run: as §1
# GABA = test: Ion channel panel (IonWorks Barracuda): GABA; format: cell-based; settings: 100% = no change, <100% = inhibition
# How it was run: as §1
# 5HT3a = target: T14, 5HT3a (Homo sapiens, UniProt P46098); test: Ion channel panel (IonWorks Barracuda): 5HT3a; format: cell-based
# T14 construct: host or cells: HEK293 or CHO
# T14 sequence (P46098 whole entry, looked up): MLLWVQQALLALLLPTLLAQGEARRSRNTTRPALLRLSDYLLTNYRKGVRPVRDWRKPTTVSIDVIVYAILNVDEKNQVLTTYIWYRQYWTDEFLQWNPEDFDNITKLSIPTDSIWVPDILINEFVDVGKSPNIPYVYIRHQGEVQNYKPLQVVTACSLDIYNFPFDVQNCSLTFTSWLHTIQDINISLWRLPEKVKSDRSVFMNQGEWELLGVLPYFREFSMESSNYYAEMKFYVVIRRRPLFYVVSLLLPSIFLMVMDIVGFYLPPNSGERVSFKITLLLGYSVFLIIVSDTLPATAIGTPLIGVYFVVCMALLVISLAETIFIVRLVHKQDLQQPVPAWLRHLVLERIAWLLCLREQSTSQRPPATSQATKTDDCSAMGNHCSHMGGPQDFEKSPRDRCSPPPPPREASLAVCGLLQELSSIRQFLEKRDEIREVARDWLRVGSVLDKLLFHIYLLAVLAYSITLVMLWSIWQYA
# How it was run: as §1
# NR2A = target: T15, NR2A (Homo sapiens, UniProt Q12879); test: Ion channel panel (IonWorks Barracuda): NR2A; format: cell-based; settings: 100% = no change, <100% = inhibition
# T15 construct: host or cells: HEK293 or CHO
# How it was run: as §1
# [1] = first of two Nav1.5 columns (probably TP1)
# [2] = second of two Nav1.5 columns (probably TP2)
# [3] = first of two Nav1.7 columns (probably TP1)
# [4] = second of two Nav1.7 columns (probably TP2)
# T8 sequence (Q15858 whole entry): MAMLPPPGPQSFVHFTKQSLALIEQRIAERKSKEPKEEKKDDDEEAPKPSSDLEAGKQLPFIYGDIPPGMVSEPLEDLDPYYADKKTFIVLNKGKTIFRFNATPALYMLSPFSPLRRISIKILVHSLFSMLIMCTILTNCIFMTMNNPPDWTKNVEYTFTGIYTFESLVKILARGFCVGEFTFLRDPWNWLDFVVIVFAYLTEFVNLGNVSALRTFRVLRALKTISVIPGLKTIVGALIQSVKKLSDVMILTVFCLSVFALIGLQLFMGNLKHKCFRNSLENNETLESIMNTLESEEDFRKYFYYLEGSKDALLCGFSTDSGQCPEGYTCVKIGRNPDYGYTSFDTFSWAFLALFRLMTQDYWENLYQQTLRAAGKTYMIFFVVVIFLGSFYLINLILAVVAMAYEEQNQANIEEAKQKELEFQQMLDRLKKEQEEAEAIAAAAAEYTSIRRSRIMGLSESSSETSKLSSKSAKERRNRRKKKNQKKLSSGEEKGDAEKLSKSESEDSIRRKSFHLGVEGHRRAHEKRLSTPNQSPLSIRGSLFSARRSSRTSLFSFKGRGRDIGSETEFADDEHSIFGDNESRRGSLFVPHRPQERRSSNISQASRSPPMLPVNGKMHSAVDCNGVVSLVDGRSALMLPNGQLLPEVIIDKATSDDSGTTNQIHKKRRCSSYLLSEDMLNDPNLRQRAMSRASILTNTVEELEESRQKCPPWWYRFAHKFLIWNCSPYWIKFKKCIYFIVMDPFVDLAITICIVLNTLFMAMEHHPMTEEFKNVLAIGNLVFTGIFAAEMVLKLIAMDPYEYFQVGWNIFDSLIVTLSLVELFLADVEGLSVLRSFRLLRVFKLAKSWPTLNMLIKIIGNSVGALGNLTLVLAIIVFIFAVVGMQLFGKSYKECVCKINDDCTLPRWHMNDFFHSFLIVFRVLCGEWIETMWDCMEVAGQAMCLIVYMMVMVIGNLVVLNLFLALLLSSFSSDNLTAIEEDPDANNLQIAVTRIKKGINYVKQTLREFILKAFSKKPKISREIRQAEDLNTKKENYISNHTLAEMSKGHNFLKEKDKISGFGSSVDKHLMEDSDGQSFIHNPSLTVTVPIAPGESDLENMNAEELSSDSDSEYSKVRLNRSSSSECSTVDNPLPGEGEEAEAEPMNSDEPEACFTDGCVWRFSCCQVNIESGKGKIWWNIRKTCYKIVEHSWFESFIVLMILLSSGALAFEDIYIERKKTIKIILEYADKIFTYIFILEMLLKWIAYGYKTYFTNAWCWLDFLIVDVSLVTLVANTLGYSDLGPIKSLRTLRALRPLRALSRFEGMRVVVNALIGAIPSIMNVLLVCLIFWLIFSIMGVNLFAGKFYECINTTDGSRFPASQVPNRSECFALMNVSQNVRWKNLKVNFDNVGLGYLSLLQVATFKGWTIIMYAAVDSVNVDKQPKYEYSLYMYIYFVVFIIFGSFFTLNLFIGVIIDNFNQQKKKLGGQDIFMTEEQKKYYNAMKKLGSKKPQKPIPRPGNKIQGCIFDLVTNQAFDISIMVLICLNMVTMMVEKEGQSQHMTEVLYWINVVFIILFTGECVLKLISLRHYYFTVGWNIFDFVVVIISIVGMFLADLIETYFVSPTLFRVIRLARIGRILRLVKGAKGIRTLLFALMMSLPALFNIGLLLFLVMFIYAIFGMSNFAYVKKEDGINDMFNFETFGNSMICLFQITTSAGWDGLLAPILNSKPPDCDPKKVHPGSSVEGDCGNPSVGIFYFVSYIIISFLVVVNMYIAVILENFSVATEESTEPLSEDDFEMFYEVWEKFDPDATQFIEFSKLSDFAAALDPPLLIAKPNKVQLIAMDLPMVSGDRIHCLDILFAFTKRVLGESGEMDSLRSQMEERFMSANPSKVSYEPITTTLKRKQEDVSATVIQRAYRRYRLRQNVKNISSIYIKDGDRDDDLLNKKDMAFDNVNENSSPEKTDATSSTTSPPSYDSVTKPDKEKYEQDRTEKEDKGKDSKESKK
# Nav1.5, sequence (Q14524 whole entry): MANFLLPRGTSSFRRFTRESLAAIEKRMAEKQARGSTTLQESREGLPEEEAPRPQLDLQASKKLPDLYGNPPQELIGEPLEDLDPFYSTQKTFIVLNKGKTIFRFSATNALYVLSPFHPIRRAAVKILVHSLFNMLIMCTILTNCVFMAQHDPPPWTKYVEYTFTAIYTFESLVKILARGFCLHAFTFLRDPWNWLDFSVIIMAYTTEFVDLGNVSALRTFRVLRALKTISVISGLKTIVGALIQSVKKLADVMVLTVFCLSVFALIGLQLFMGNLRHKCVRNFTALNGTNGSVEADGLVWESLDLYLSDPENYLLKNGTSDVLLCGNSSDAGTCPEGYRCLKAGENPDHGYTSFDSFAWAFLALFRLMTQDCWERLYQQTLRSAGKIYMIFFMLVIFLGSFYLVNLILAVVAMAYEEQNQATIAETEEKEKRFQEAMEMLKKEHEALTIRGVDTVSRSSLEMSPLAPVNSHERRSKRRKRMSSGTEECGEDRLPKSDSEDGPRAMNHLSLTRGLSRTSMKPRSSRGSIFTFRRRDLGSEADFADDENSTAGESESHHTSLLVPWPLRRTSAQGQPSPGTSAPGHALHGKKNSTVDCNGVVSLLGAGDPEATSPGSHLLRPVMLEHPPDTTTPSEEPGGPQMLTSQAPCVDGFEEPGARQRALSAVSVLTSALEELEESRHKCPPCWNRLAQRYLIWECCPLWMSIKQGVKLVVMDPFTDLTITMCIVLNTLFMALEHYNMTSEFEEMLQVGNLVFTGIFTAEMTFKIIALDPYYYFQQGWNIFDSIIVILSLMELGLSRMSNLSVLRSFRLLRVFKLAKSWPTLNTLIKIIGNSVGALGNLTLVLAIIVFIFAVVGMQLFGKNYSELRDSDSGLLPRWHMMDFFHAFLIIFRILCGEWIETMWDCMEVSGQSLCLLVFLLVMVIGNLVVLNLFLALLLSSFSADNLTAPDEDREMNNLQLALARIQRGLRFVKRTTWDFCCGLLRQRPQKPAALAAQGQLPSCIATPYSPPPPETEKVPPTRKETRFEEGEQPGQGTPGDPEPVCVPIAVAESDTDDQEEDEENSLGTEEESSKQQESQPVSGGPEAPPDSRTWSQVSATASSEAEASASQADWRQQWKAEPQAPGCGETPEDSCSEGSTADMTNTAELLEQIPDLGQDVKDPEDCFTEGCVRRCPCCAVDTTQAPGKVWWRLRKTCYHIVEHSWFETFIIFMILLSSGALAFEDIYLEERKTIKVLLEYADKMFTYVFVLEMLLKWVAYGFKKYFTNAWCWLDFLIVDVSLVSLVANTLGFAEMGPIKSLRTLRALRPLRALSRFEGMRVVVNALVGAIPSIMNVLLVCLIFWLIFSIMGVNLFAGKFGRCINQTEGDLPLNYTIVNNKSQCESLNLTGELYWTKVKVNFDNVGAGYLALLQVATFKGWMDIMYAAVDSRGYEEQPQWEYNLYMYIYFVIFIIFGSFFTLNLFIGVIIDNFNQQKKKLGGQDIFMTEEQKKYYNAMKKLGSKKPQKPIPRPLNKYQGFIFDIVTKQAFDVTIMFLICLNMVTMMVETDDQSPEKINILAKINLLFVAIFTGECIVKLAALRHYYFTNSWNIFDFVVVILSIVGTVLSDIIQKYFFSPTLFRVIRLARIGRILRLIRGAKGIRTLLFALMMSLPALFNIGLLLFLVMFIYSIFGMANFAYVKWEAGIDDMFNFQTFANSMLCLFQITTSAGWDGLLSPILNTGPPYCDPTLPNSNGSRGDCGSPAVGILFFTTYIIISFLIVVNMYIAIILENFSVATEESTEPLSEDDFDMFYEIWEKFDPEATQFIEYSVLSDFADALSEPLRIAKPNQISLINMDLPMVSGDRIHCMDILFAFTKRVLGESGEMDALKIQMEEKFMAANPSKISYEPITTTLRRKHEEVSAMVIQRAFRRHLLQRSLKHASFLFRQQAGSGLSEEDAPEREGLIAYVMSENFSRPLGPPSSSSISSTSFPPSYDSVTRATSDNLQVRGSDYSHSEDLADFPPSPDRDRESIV
# T11 sequence (P22001 whole entry): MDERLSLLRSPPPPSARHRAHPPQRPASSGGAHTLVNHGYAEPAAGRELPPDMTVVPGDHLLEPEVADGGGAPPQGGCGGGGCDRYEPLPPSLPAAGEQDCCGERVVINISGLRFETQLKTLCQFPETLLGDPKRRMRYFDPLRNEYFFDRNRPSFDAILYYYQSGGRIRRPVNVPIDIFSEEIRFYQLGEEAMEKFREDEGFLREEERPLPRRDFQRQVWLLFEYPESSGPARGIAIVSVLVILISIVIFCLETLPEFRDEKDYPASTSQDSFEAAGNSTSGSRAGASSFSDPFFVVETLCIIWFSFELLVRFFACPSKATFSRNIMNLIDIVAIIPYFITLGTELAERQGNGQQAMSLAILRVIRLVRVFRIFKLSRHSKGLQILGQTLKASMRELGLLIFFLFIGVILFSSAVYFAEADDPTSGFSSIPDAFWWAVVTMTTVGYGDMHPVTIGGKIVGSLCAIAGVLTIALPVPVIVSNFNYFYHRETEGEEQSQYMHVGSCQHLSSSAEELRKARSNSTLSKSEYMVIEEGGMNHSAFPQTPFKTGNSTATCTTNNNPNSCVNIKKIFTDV
# T2 sequence (P63252 whole entry): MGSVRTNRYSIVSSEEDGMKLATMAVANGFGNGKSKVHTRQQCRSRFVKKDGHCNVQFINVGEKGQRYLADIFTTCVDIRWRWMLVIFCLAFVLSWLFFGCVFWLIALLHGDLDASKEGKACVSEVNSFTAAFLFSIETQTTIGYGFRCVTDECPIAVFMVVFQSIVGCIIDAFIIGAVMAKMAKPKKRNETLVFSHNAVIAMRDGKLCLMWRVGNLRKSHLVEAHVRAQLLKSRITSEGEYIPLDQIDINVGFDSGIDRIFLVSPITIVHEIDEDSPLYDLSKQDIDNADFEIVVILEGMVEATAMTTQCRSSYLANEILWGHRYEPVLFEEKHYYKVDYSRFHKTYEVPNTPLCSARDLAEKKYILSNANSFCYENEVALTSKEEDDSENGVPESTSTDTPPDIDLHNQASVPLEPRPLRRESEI
substance,measurement,setting,value
20 (GSQIDTNVKCSGSSKCVKICIDRYNTRGAKCINGRCTCYP) [compound 20],"Activity of a4b2 with peptide, expressed as a percentage of the reference compound",α4β2; peptide at 0.2 μM,113%
same,Activity of a4b2 with peptide (percentage of the reference compound),α4β2; peptide at 20 μM,92%
same,"Activity of Kir2.1 with peptide, expressed as a percentage of the reference compound",Kir2.1; peptide at 0.2 μM,89%
same,Activity of Kir2.1 with peptide (percentage of the reference compound),Kir2.1; peptide at 20 μM,95%
same,"Activity of Cav2.1 with peptide, expressed as a percentage of the reference compound",Cav2.1; peptide at 0.2 μM,100%
same,Activity of Cav2.1 with peptide (percentage of the reference compound),Cav2.1; peptide at 20 μM,116%
same,"Activity of Kv2.1 with peptide, expressed as a percentage of the reference compound",Kv2.1; peptide at 0.2 μM,99%
same,Activity of Kv2.1 with peptide (percentage of the reference compound),Kv2.1; peptide at 20 μM,97%
same,"Activity of Cav2.2 with peptide, expressed as a percentage of the reference compound",Cav2.2; peptide at 0.2 μM,110%
same,Activity of Cav2.2 with peptide (percentage of the reference compound),Cav2.2; peptide at 20 μM,105%
same,"Activity of hERG with peptide, expressed as a percentage of the reference compound",hERG; peptide at 0.2 μM,90%
same,Activity of hERG with peptide (percentage of the reference compound),hERG; peptide at 20 μM,87%
same,"Activity of Nav1.5 with peptide, expressed as a percentage of the reference compound",Nav1.5; [1],103%
same,"Activity of Nav1.5 with peptide, expressed as a percentage of the reference compound",Nav1.5; [2],101%
same,Activity of Nav1.5 with peptide (percentage of the reference compound),Nav1.5; [1],102%
same,Activity of Nav1.5 with peptide (percentage of the reference compound),Nav1.5; [2],105%
same,"Activity of TRPV1 with peptide, expressed as a percentage of the reference compound",TRPV1; peptide at 0.2 μM,109%
same,Activity of TRPV1 with peptide (percentage of the reference compound),TRPV1; peptide at 20 μM,102%
same,"Activity of NR2B with peptide, expressed as a percentage of the reference compound",NR2B; peptide at 0.2 μM,104%
same,Activity of NR2B with peptide (percentage of the reference compound),NR2B; peptide at 20 μM,92%
same,"Activity of Nav1.7 with peptide, expressed as a percentage of the reference compound",Nav1.7; [3],92%
same,"Activity of Nav1.7 with peptide, expressed as a percentage of the reference compound",Nav1.7; [4],59%
same,Activity of Nav1.7 with peptide (percentage of the reference compound),Nav1.7; [3],81%
same,Activity of Nav1.7 with peptide (percentage of the reference compound),Nav1.7; [4],95%
same,"Activity of a3b4 with peptide, expressed as a percentage of the reference compound",α3β4; peptide at 0.2 μM,103%
same,Activity of a3b4 with peptide (percentage of the reference compound),α3β4; peptide at 20 μM,94%
same,"Activity of Kv1.1 with peptide, expressed as a percentage of the reference compound",Kv1.1; peptide at 0.2 μM,94%
same,Activity of Kv1.1 with peptide (percentage of the reference compound),Kv1.1; peptide at 20 μM,95%
same,"Activity of Kv1.3 with peptide, expressed as a percentage of the reference compound",Kv1.3; peptide at 0.2 μM,80%
same,Activity of Kv1.3 with peptide (percentage of the reference compound),Kv1.3; peptide at 20 μM,7%
same,"Activity of Kv1.2 with peptide, expressed as a percentage of the reference compound",Kv1.2; peptide at 0.2 μM,115%
same,Activity of Kv1.2 with peptide (percentage of the reference compound),Kv1.2; peptide at 20 μM,74%
same,"Activity of TRPA1 with peptide, expressed as a percentage of the reference compound",TRPA1; peptide at 0.2 μM,114%
same,Activity of TRPA1 with peptide (percentage of the reference compound),TRPA1; peptide at 20 μM,114%
same,"Activity of GABA with peptide, expressed as a percentage of the reference compound",GABA; peptide at 0.2 μM,109%
same,Activity of GABA with peptide (percentage of the reference compound),GABA; peptide at 20 μM,106%
same,Activity of 5HT3a with peptide (percentage of the reference compound),5HT3a,91%
same,"Activity of 5HT3a with peptide, expressed as a percentage of the reference compound",5HT3a,96%
same,"Activity of NR2A with peptide, expressed as a percentage of the reference compound",NR2A; peptide at 0.2 μM,98%
same,Activity of NR2A with peptide (percentage of the reference compound),NR2A; peptide at 20 μM,104%
